The assay concerns the target hnRNP F/H (human (endogenous in 293)). The experiment in a line: co-IP; extracts of 293 cells expressing FLAG-SRSF10, RS1-FLAG, RS2-FLAG or RS1-ΔΔ-FLAG, lysed in NET-2 buffer (50 mM Tris-HCl pH 7.4, 150 mM NaCl, 0.05% NP-40), treated with RNase A; anti-hnRNP F, H or K antibodies on protein G magnetic beads, overnight at 4°C; blot with anti-FLAG; cells treated or not with oxaliplatin.

Chain of FLAG-SRSF10 (O75494 whole entry): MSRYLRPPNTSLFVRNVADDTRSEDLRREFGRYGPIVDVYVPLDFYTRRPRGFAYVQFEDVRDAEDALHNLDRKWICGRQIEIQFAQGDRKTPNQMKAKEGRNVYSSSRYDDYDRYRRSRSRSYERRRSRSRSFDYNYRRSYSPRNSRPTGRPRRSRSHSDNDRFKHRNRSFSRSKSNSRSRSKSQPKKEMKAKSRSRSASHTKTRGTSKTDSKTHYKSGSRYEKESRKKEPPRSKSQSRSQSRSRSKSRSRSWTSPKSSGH

Turning to “FLAG-SRSF10 (from UniProt O75494 1-262) (natural protein)”, the percent of total SRSF10 associated lay in the range of 0.5 to 1%.

Source of the values: publication PMC5483951.
